1 substance from paper PMC10457309 can be followed below.

In the experiment the target is HH-120 (IgM-like hACE2-Fc fusion protein) (UniProt Q9BYF1). Briefly: SPR. For orientation: Surface plasmon resonance follows binding to a sensor surface in real time, without labels.

A word on the Kd: it is the concentration at which binding is half-saturated. Read a low Kd as a tighter complex.

Substance “SARS-CoV-2 RBD (amino acids 316-512 of the S protein in the SARS-CoV-2 D614 strain) (from UniProt P0DTC2 316-512) (domain or fragment)” registered a dissociation constant Kd of 26.4 nM.
